Tests used:
[1] = biological target: T1, recombinant human IL1RAP protein (human, UniProt Q9NPH3 21-359, limits assumed); assay: ELISA: recombinant IL1RAP protein coated at 1 ug/ml, purified IgG in three-fold serial dilution, HRP-anti-human FC detection, OD450
T1 construct: also called recombinant IL1RAP protein; Interleukin-1 receptor accessory protein

CD3 on T cells = biological target: T2, CD3 on T cells (Homo sapiens (Human), UniProt P07766 23-207; P04234 22-171; P09693 23-182; P20963 22-164); assay: flow cytometry: T cells incubated with 1D5 in place of the bispecific antibody, then his-tagged recombinant IL1RAP, detection with FITC-anti-his antibody
T2 construct: also called T cell co-receptor CD3

[2] = biological target: T1, recombinant human IL1RAP protein; assay: ELISA; 1 µg/ml recombinant IL1RAP coated; antibody in three-fold dilutions from 1 µg/ml; HRP-anti-human FC detection
Description: Purified antibodies in three-fold serial dilution starting from 1 μg/ml are added to each well. HRP-anti-human FC antibody is used as detection antibody.

[3] = biological target: T1, recombinant human IL1RAP protein; assay: method not given
[4] = biological target: T1, recombinant human IL1RAP protein; assay: SPR, Biacore T100

T1 sequence (Q9NPH3 21-359 limits assumed): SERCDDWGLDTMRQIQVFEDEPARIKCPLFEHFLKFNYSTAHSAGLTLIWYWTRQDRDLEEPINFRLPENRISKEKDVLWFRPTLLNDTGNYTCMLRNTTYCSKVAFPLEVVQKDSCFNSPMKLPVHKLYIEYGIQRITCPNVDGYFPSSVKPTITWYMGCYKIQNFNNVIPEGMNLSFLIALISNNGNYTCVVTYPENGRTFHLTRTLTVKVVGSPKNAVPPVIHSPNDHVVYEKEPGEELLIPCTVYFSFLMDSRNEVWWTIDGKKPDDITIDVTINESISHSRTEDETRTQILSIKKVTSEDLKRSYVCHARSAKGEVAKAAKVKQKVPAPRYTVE
T2 sequence (P07766 23-207 limits assumed, chain 1 of 4): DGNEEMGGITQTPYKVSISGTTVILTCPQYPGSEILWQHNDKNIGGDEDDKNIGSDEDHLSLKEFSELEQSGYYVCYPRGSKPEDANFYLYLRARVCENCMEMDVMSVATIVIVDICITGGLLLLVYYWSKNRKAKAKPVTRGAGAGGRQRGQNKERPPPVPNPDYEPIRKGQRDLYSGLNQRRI
T2 sequence (P04234 22-171 limits assumed, chain 2 of 4): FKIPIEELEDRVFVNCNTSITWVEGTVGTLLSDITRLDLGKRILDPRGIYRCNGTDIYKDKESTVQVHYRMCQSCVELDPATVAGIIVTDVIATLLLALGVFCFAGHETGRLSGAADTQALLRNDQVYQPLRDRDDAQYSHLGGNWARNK
T2 sequence (P09693 23-182 limits assumed, chain 3 of 4): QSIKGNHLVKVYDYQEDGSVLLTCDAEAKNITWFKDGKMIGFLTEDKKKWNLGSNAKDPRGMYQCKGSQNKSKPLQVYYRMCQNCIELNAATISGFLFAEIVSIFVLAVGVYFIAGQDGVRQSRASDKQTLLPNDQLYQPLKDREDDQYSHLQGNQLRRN
T2 sequence (P20963 22-164 limits assumed, chain 4 of 4): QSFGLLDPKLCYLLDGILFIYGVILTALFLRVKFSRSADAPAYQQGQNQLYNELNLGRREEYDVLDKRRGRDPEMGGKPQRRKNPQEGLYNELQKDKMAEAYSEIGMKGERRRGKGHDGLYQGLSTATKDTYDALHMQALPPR

| Binder | EC50 (read off the curve) [1] | binding result (CD3 on T cells) | EC50 [2] | Kd [3] | Kd [4] |
| --- | --- | --- | --- | --- | --- |
| 2E12 (antibody, V domains shown) VH: GGGLVQPGGSLRLSCEASGFTFSRYWMHWVRQAPGKGLVWVSRIHTDGSSISYADSVKGRFTISRDNAKNTLYLQMNSLRAEDTAVYYCARDIGGGYSYGSVDYWGQGTLVTVSS VL: QPVLTQSPSVSVAPGKTTRITCGGDNIGSKSVHWFQQKPGQAPVLVVFGGGDRPSGIPERFSGSNSGNTATLIISGVEGGDEADYYCQVWDGSTDHYIFGAGTMVTVL | ~0.09 µg/mL |  |  |  |  |
| D1A4 (antibody, V domains shown) VH: PGPLVQSGAEVKKPGASVKVSCTTSGFPFNMYGFNWVRQAPGQGLEWMGWISAYNGRTNYAQKFQGRVTMTTDTSTSTSYVELESLTSDDTAVYYCARSGKQQLGSAQPLDSWGQGTLIIVSS VL: not shown | ~0.1 µg/mL |  |  |  |  |
| human monoclonal antibody 1D5 (anti-IL1RAP) (antibody, V domains shown, also called clone ID5) VH: QVQLVQSGAEVKKPGESLKISCKGSGYSFSSHWIGWVRQMPGKGLEWMGIIYPGDSDTRYSPSFQGQVTISADKSISTAYLQWSSLKASDTAMYYCARGELPGEAYYFDNWGQGTLVTVSS VL: not shown |  | no binding | 0.0049 µg/mL | ~20 nM | 21.2 nM |
